T1: ROD^1–1,250 (human, UniProt P50748 1-1250)
T1 sequence (looked up): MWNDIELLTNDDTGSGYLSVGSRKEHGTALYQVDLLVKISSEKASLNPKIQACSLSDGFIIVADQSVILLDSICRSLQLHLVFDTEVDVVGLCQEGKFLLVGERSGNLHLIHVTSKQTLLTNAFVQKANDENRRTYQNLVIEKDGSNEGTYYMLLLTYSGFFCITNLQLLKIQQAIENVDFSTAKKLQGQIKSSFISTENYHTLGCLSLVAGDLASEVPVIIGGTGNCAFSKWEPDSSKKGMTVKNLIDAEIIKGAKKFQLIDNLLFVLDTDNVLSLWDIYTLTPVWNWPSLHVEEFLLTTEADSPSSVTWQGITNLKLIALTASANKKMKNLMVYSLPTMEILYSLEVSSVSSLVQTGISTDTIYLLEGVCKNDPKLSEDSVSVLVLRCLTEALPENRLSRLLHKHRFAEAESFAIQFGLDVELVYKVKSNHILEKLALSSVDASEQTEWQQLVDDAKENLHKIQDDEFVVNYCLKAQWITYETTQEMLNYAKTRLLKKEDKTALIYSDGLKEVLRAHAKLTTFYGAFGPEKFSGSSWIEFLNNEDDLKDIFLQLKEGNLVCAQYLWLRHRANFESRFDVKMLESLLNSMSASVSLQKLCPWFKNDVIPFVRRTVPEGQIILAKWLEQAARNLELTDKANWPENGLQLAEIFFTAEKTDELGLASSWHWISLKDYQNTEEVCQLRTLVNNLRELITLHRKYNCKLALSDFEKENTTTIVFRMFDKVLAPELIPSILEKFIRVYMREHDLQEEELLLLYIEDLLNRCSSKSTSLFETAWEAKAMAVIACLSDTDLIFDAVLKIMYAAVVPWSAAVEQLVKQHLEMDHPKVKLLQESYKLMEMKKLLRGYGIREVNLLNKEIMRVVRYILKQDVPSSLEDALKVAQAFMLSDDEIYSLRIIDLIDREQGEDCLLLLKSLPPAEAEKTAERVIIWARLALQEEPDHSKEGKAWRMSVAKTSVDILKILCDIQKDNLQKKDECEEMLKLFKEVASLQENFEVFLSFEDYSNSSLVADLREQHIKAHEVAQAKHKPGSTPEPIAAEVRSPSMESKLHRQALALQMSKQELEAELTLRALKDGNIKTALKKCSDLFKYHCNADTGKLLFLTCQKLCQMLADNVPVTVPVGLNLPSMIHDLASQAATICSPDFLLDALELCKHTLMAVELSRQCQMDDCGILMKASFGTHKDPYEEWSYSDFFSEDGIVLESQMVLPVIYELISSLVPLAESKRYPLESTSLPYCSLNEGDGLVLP

B1: Zwilch (natural protein)
chain: not shown

Assays:
Zwilch = target: B1; assay: SEC
ROD^1–1,250 [1] = target: T1, ROD^1–1,250; assay: co-expression and co-purification
ROD^1–1,250 [2] = target: T1, ROD^1–1,250; assay: negative-stain EM 3D reconstruction
[3] = target: ROD–Zwilch–ZW10 (RZZ) complex (human, UniProt P50748 1-2209; Q9H900 1-591; O43264 1-779); assay: AUC
ROD–Zwilch–ZW10 (RZZ) complex, sequence (Q9H900 whole entry, one chain of several): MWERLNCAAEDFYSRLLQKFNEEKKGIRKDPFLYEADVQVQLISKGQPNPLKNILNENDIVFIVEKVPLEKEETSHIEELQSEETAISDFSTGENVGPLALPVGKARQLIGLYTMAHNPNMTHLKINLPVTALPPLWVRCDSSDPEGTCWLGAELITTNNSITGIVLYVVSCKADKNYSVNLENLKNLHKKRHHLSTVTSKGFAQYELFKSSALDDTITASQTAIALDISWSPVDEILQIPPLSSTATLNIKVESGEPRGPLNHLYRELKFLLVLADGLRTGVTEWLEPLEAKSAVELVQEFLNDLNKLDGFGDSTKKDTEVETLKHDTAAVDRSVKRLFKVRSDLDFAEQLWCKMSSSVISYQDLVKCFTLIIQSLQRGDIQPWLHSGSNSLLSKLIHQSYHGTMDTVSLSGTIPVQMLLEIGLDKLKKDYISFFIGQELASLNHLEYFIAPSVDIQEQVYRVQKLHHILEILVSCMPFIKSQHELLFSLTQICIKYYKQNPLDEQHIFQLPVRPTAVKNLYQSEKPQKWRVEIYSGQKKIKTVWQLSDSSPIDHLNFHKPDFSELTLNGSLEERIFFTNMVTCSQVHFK

Zwilch, sequence (Q9H900 whole entry, the tested form may be a part): as the sequence (Q9H900 whole entry, one chain of several) above

Binder | binding result (Zwilch) | binding result (ROD^1–1,250 [1]) | binding result (ROD^1–1,250 [2]) | stoichiometry N [3]
ROD^Δ754–1,796 (domain or fragment, human) MWNDIELLTNDDTGSGYLSVGSRKEHGTALYQVDLLVKISSEKASLNPKIQACSLSDGFIIVADQSVILLDSICRSLQLHLVFDTEVDVVGLCQEGKFLLVGERSGNLHLIHVTSKQTLLTNAFVQKANDENRRTYQNLVIEKDGSNEGTYYMLLLTYSGFFCITNLQLLKIQQAIENVDFSTAKKLQGQIKSSFISTENYHTLGCLSLVAGDLASEVPVIIGGTGNCAFSKWEPDSSKKGMTVKNLIDAEIIKGAKKFQLIDNLLFVLDTDNVLSLWDIYTLTPVWNWPSLHVEEFLLTTEADSPSSVTWQGITNLKLIALTASANKKMKNLMVYSLPTMEILYSLEVSSVSSLVQTGISTDTIYLLEGVCKNDPKLSEDSVSVLVLRCLTEALPENRLSRLLHKHRFAEAESFAIQFGLDVELVYKVKSNHILEKLALSSVDASEQTEWQQLVDDAKENLHKIQDDEFVVNYCLKAQWITYETTQEMLNYAKTRLLKKEDKTALIYSDGLKEVLRAHAKLTTFYGAFGPEKFSGSSWIEFLNNEDDLKDIFLQLKEGNLVCAQYLWLRHRANFESRFDVKMLESLLNSMSASVSLQKLCPWFKNDVIPFVRRTVPEGQIILAKWLEQAARNLELTDKANWPENGLQLAEIFFTAEKTDELGLASSWHWISLKDYQNTEEVCQLRTLVNNLRELITLHRKYNCKLALSDFEKENTTTIVFRMFDKVLAPELIPSILEKFIRVYMREHDLQEEGGSGGGSGGGSGGGSGIHAAAKEIAEVNEINLEKVWDMLLEKWLCPSTKPGEKPSELFELQEDEALRRVQYLLLSRPIDYSSRMLFVFATSTTTTLGMHQLTFAHRTRALQCLFYLADKETIESLFKKPIEEVKSYLRCITFLASFETLNIPITYELFCSSPKEGMIKGLWKNHSHESMAVRLVTELCLEYKIYDLQLWNGLLQKLLGFNMIPYLRKVLKAISSIHSLWQVPYFSKAWQRVIQIPLLSASCPLSPDQLSDCSESLIAVLECPVSGDLDLIGVARQYIQLELPAFALACLMLMPHSEKRHQQIKNFLGSCDPQVILKQLEEHMNTGQLAGFSHQIRSLILNNIINKKEFGILAKTKYFQMLKMHAMNTNNITELVNYLANDLSLDEASVLITEYSKHCGKPVPPDTAPCEILKMFLSGLS | binds |  |  | 
B1 |  | binds | binds | 
ZW10 (natural protein, human, UniProt O43264 1-779, looked up) MASFVTEVLAHSGRLEKEDLGTRISRLTRRVEEIKGEVCNMISKKYSEFLPSMQSAQGLITQVDKLSEDIDLLKSRIESEVRRDLHVSTGEFTDLKQQLERDSVVLSLLKQLQEFSTAIEEYNCALTEKKYVTGAQRLEEAQKCLKLLKSRKCFDLKILKSLSMELTIQKQNILYHLGEEWQKLIVWKFPPSKDTSSLESYLQTELHLYTEQSHKEEKTPMPPISSVLLAFSVLGELHSKLKSFGQMLLKYILRPLASCPSLHAVIESQPNIVIIRFESIMTNLEYPSPSEVFTKIRLVLEVLQKQLLDLPLDTDLENEKTSTVPLAEMLGDMIWEDLSECLIKNCLVYSIPTNSSKLQQYEEIIQSTEEFENALKEMRFLKGDTTDLLKYARNINSHFANKKCQDVIVAARNLMTSEIHNTVKIIPDSKINVPELPTPDEDNKLEVQKVSNTQYHEVMNLEPENTLDQHSFSLPTCRISESVKKLMELAYQTLLEATTSSDQCAVQLFYSVRNIFHLFHDVVPTYHKENLQKLPQLAAIHHNNCMYIAHHLLTLGHQFRLRLAPILCDGTATFVDLVPGFRRLGTECFLAQMRAQKGELLERLSSARNFSNMDDEENYSAASKAVRQVLHQLKRLGIVWQDVLPVNIYCKAMGTLLNTAISEVIGKITALEDISTEDGDRLYSLCKTVMDEGPQVFAPLSEESKNKKYQEEVPVYVPKWMPFKELMMMLQASLQEIGDRWADGKGPLAAAFSSSEVKALIRALFQNTERRAAALAKIK |  | binds | binds | 
farnesylated Spindly (Spindly^Farn) (natural protein, human, UniProt Q96EA4 1-605, looked up, farnesyl on Cys602) MEADIITNLRCRLKEAEEERLKAAQYGLQLVESQNELQNQLDKCRNEMMTMTESYEQEKYTLQREVELKSRMLESLSCECEAIKQQQKMHLEKLEEQLSRSHGQEVNELKTKIEKLKVELDEARLSEKQLKHQVDHQKELLSCKSEELRVMSERVQESMSSEMLALQIELTEMESMKTTLKEEVNELQYRQEQLELLITNLMRQVDRLKEEKEEREKEAVSYYNALEKARVANQDLQVQLDQALQQALDPNSKGNSLFAEVEDRRAAMERQLISMKVKYQSLKKQNVFNREQMQRMKLQIATLLQMKGSQTEFEQQERLLAMLEQKNGEIKHLLGEIRNLEKFKNLYDSMESKPSVDSGTLEDNTYYTDLLQMKLDNLNKEIESTKGELSIQRMKALFESQRALDIERKLFANERCLQLSESENMKLRAKLDELKLKYEPEETVEVPVLKKRREVLPVDITTAKDACVNNSALGGEVYRLPPQKEETQSCPNSLEDNNLQLEKSVSIYTPVVSLSPHKNLPVDMQLKKEKKCVKLIGVPADAEALSERSGNTPNSPRLAAESKLQTEVKEGKETSSKLEKETCKKLHPILYVSSKSTPETQCPQQ |  |  |  | 2 copies of each subunit
mCherry–Spindly^Farn (natural protein, human, UniProt Q96EA4 1-605, looked up, farnesyl on Cys602) MEADIITNLRCRLKEAEEERLKAAQYGLQLVESQNELQNQLDKCRNEMMTMTESYEQEKYTLQREVELKSRMLESLSCECEAIKQQQKMHLEKLEEQLSRSHGQEVNELKTKIEKLKVELDEARLSEKQLKHQVDHQKELLSCKSEELRVMSERVQESMSSEMLALQIELTEMESMKTTLKEEVNELQYRQEQLELLITNLMRQVDRLKEEKEEREKEAVSYYNALEKARVANQDLQVQLDQALQQALDPNSKGNSLFAEVEDRRAAMERQLISMKVKYQSLKKQNVFNREQMQRMKLQIATLLQMKGSQTEFEQQERLLAMLEQKNGEIKHLLGEIRNLEKFKNLYDSMESKPSVDSGTLEDNTYYTDLLQMKLDNLNKEIESTKGELSIQRMKALFESQRALDIERKLFANERCLQLSESENMKLRAKLDELKLKYEPEETVEVPVLKKRREVLPVDITTAKDACVNNSALGGEVYRLPPQKEETQSCPNSLEDNNLQLEKSVSIYTPVVSLSPHKNLPVDMQLKKEKKCVKLIGVPADAEALSERSGNTPNSPRLAAESKLQTEVKEGKETSSKLEKETCKKLHPILYVSSKSTPETQCPQQ |  |  |  | 2 copies of each subunit

Source: publication PMC5379955 (The Journal of Cell Biology, 2017)
